In patent publication US12590158 (XIYUAN ANJIAN MEDICINE SHANGHAI, dated 2026):
Where a chain is given by its changes, count along the chain named.

B1: humanized anti-TrkA antibody 42F5-03 (antibody, V domains shown)
VH: QVQLVQSGAEVKKPGASVKVSCKSSGYTFTNYWMHWVRQAPGQGLEWIGEIYPNNGRVNYNEKFKNRATLTVDISISTAYMELSRLRSDDTAVYYCARSRYDPMEDWGQGTTVTVSS
VL: DVQLTQSPSSLSASVGDRVTITCSASSSVGYMHWYQQKPGKAPKRWIYDTSKLASGVPSRFSGSGSGTDYTLTISSLQPEDFATYFCQQWSSIPLTFGQGTRLEIK
notes: VH grafted to human IgG4 heavy chain constant region, VL to human Kappa light chain constant region
B2: humanized anti-TrkA antibody 42F5-04 (antibody, V domains shown)
VH: B1 VH with A16S, I76T, R85S, D89E
VL: B1 VL
notes: as for B1
B3: control antibody BXhVH5VL1 (antibody, V domains shown)
VH: EVKLLESGGGLVQPGGSLRLSCAASGFTFSTYTMSWVRQTPGKRLEWVAYISKGGGSTYYPDTVKGRFTISRDNSKNTLYLQMNSLRAEDTAVYYCARGAMYGNDFFYPMDYWGQGTTVTVSS
VL: EIVLTQSPATLSLSPGERATLSCSASSSVSYMHWYQQKPGQAPRLLIYTTSNLASGIPARFSGSGSGTDFTLTISSLEPEDFAVYYCHQWSSYPWTFGQGTKLEIK

Columns and labels:
[1] = biological target: T1, human TrkA extracellular region (33-417) protein containing mouse Fc (human, UniProt P04629 33-417); assay: ELISA, coated human TrkA (33-417)-mouse Fc, anti-human IgG-HRP
T1 construct: range 33-417
T1 sequence (P04629 33-417 limits assumed): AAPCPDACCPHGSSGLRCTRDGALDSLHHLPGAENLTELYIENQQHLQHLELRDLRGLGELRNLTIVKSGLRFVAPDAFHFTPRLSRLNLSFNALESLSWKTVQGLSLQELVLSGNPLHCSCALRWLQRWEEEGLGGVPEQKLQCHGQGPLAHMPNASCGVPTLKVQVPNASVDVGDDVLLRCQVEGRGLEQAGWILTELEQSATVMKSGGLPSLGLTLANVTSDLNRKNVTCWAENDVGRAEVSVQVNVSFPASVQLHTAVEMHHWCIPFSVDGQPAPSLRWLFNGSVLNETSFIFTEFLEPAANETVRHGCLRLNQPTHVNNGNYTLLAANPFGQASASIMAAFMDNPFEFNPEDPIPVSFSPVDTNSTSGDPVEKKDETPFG
Method: Each well of a 96-well microtiter plate was coated with 50 ng of human TrkA, washed and blocked, then added with serially diluted humanized antibodies, and incubated for 1 hour at room temperature. After washing three times, horseradish peroxidase-conjugated goat anti-human IgG antibody (ThermoFisher, A18817) was added and reacted at room temperature for 1 hour. After washing three time, tetramethylbenzidine (TMB, Biolegend) was added for color development. 1M HCl was used to terminate the color development, and the absorbance values were read at 450 nm with a microplate reader.

[2] = biological target: T2, full-length human TrkA expressed on cells (human, UniProt P04629 33-796); assay: cell-based or functional assay
T2 sequence (P04629 33-796): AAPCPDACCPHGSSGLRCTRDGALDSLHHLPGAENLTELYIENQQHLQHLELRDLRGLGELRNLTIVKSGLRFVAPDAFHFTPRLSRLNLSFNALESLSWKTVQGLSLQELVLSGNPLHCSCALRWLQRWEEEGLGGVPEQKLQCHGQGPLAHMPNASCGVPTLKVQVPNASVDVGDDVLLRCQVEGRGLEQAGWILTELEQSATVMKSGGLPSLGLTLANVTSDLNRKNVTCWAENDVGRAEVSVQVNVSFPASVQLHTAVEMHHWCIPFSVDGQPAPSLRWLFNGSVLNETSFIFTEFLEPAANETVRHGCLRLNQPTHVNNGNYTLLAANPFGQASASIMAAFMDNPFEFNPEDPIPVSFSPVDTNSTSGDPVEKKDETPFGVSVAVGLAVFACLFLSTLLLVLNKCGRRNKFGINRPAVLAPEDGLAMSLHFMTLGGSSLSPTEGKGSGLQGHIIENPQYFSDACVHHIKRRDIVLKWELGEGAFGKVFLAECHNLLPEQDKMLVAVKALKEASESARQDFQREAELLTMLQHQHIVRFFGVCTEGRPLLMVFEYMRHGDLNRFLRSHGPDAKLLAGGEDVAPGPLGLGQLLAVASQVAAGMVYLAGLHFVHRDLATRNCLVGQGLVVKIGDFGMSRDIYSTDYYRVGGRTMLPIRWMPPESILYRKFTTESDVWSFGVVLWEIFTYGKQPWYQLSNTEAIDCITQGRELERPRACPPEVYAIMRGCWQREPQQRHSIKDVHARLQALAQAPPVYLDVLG

[3] = biological target: T2, full-length human TrkA expressed on …; assay: cell-based or functional assay; remark: listed apart in the source
[4] = biological target: T3, human TrkB expressed on CHO cells (TrkB/CHO, ThermoFisher K1491) (human, UniProt Q16620 32-822); assay: flow cytometry on TrkB/CHO cells
T3 construct: whole, on cells
T3 sequence (Q16620 32-822): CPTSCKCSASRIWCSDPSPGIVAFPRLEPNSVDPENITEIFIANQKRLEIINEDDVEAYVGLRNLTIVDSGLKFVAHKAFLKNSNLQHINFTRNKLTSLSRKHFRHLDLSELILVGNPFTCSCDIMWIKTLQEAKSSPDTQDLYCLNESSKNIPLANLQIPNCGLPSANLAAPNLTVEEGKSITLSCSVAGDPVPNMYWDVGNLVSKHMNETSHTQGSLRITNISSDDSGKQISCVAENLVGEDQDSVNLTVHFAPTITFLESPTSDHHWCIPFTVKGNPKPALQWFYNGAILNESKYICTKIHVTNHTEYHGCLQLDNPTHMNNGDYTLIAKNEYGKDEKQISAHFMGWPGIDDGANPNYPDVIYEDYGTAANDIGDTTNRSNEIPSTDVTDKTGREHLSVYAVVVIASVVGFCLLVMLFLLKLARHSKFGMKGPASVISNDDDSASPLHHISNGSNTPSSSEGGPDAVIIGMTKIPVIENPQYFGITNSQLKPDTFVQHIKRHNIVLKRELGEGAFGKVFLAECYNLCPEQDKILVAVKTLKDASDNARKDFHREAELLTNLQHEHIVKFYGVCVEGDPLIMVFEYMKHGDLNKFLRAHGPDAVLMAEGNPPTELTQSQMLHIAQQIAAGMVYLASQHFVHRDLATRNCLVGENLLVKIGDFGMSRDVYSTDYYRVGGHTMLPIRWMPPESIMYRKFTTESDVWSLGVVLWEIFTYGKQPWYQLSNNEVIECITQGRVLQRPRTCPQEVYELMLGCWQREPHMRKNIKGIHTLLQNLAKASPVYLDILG
Method: (§1) CHO-K1 was used as a negative control. The binding of the humanized antibodies to the four cell lines was detected by flow cytometry.
(§2) The cells were cultured according to the manufacturer's instruction. The cells were harvested in the logarithmic growth phase, re-suspended in flow buffer (PBS+2% FBS, pH 7.4), and added into 96-well plate, 10^5 cells per well (50 µl). 50 µl of 100 µg/mL humanized anti-TrkA antibody was added, incubated at room temperature for 60 min, and centrifuged at 1200 rpm. The supernatant was discarded and the cells were washed 3 times. FITC-labeled goat anti-human Fc antibody (Abeam, ab97224) was diluted to 5 µg/mL with flow buffer and used to re-suspend the cells, incubated at room temperature for 30 min in the dark, centrifuged, and the supernatant was discarded. After washing 3 times, the cells were re-suspended with 7AAD solution (Biolegend, 420403), incubated for 10 min at room temperature, and the binding of the antibody was detected with a flow cytometer (BioRad, ZE5).

[5] = biological target: T4, human TrkC expressed on CHO cells (TrkC/CHO, ThermoFisher K1515) (human, UniProt Q16288 32-839); assay: flow cytometry on TrkC/CHO cells
T4 construct: whole, on cells
T4 sequence (Q16288 32-839): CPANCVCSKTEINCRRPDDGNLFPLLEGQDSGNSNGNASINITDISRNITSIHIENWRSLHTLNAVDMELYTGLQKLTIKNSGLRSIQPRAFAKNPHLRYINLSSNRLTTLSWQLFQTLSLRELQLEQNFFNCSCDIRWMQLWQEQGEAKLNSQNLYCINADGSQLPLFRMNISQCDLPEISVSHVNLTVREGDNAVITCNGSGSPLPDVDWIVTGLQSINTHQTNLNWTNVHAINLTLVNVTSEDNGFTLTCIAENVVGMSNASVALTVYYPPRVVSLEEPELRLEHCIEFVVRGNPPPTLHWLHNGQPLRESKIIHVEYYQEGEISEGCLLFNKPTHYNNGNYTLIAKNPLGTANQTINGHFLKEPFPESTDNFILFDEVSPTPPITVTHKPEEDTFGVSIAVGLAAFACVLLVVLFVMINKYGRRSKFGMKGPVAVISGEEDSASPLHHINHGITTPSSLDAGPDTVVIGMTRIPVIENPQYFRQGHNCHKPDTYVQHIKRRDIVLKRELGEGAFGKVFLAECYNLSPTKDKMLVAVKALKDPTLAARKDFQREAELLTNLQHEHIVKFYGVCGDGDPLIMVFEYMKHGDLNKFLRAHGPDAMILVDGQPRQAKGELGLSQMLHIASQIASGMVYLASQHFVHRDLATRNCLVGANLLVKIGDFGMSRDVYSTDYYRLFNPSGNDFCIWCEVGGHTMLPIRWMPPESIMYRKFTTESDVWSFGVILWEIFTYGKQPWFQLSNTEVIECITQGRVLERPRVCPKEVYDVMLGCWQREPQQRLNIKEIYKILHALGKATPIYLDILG
Method: as §1, §2

[6] = biological target: T5, TrkA extracellular region (33-417) protein comprising human Fc (ACROBiosystems TRA-H5259) (human, UniProt P04629 33-417); assay: competition ELISA, coated TrkA (33-417)-hFc, antibody titrated, competitor biotin-labeled human NGF
T5 construct: range 33-417; Bought fusion protein; also called human TrkA (33-417); human TrkA extracellular region
T5 sequence (P04629 33-417 limits assumed): as the sequence (P04629 33-417 limits assumed) above
Method: Each well of a 96-well microtiter plate was coated with 50 ng of TrkA extracellular region (33-417) protein fused to human Fc, washed three times and blocked with 3% BSA for 1 hour. […] Each well was added with 100 μl and incubated at room temperature for 30 minutes. […] Streptavidin-labeled horseradish peroxidase (Streptavidin-HRP, Biolegend, 405210) was added and incubated for 0.5 hours. After washing three times, TMB was added to the plate, and the absorbance at 450 nm was read by a microplate reader after the color development was terminated.

[7] = biological target: full-length human TrkA expressed on cells (human) (UniProt P04629); assay: cell-based or functional assay
Chain of full-length human TrkA expressed on cells (human) (P04629 33-796): as the sequence (P04629 33-796) above

EC50 [1] | IC50 of inhibiting NGF-induced TF-1 cell proliferation [2] | IC50 of inhibiting NGF-induced TrkA/Ba/F3 cell proliferation [3] | binding result [4] | binding result [5] | IC50 [6] | IC50 of inhibiting NGF-induced TF-1 cell proliferation [7] | IC50 of inhibiting NGF-induced TrkA/Ba/F3 cell proliferation [7] | inhibition rate for TrkA/Ba/F3 cell proliferation at 40 µg/mL (266.67 nM) [7] | inhibition rate on NGF-induced TF-1 cell proliferation at 40 µg/mL (266.67 nM) [7] | Binder
0.056 nM | 1.43 nM | 2.91 nM | no binding (tested: 50 µl of 100 µg/mL) | no binding (tested: 50 µl of 100 µg/mL) |  |  |  |  |  | B1
0.07 nM | 1.69 nM | 3.69 nM | no binding (tested: 50 µl of 100 µg/mL) | no binding (tested: 50 µl of 100 µg/mL) |  |  |  |  |  | B2
 |  |  |  |  | > 100 nM | > 200 nM | > 200 nM | < 50% | < 40% | B3
